Assay results taken from PMC2565473, “A Ligand Peptide Motif Selected from a Cancer Patient Is a Receptor-Interacting Site within Human Interleukin-11” (PLoS ONE, 2008).
Bridges are numbered along the chain shown (N, C = ends). Where no end group is shown, it is not given here.

B2: IL-11Rα (recombinant, extracellular domain fused to the Fc region of human IgG) (Fc fusion, UniProt Q14626 24-370, looked up)
chain: SPCPQAWGPPGVQYGQPGRSVKLCCPGVTAGDPVSWFRDGEPKLLQGPDSGLGHELVLAQADSTDEGTYICQTLDGALGGTVTLQLGYPPARPVVSCQAADYENFSCTWSPSQISGLPTRYLTSYRKKTVLGADSQRRSPSTGPWPCPQDPLGAARCVVHGAEFWSQYRINVTEVNPLGASTRLLDVSLQSILRPDPPQGLRVESVPGYPRRLRASWTYPASWPCQPHFLLKFRLQYRPAQHPAWSTVEPAGLEEVITDAVAGLPHAVRVSARDFLDAGTWSTWSPEAWGTPSTGTIPKEIPAWGQLHTQPEVEPQVDSPAPPRPSLQPHPRLLDHRDSVEQVAVLA
notes: human interleukin-11 receptor alpha, extracellular domain; The methods of the NMR and of the proliferation assay name only 'IL-11Rα' or 'human sIL-11Rα'; also called IL-11 receptor α; sIL-11Rα; source: bought: R&D Systems

Tests used:
[1] = target: B2; test: NMR titration; 1D-1H and 2D-1H TOCSY/NOESY at 600 MHz; IL-11Rα 6 µM, peptide up to 400 µM (molar excess ∼16-, 33- and 66-fold); 50 mM sodium phosphate, 5 mM sodium azide, 10% D2O; 25°C; conditions: both partners purified
GST-IL-11 G115A = target: T1, GST-IL-11 G115A (human, UniProt P20809 22-199, G115A); test: ELISA; GST fusion proteins coated overnight on 96-well plates at 5 µg/ml, blocked with 3% BSA in PBS; IL-11Rα (1 µg/ml) incubated for 2 h; detected with anti-human Fc HRP-conjugated antibody; conditions: both partners purified
T1 construct: human interleukin-11, open reading frame in pGEX4T-1, alanine mutant made on the GST-IL-11 plasmid; As m7 with the mutation; also called Gly^115 mutant; source: E. coli BL21, purified from inclusion bodies (solubilized in 6 M guanidine-HCl)
T1 sequence (looked up): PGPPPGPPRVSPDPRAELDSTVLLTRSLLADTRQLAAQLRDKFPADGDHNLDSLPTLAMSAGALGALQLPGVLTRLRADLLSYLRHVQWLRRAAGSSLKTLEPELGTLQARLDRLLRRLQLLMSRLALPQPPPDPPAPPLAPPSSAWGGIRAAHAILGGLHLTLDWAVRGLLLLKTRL

GST-IL-11 S117A = target: T2, GST-IL-11 S117A (human, UniProt P20809 22-199, S117A); test: as above; conditions: both partners purified
T2 construct: human interleukin-11, open reading frame in pGEX4T-1, alanine mutant made on the GST-IL-11 plasmid; As m7 with the mutation; also called Ser^117 mutant; source: E. coli BL21, purified from inclusion bodies (solubilized in 6 M guanidine-HCl)
T2 sequence (looked up): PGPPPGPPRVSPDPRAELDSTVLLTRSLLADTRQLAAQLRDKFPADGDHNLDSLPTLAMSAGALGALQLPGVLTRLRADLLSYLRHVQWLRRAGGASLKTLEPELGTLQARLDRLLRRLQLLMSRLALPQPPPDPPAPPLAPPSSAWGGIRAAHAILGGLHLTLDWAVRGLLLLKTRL

GST-IL-11 R112A = target: T3, GST-IL-11 R112A (human, UniProt P20809 22-199, R112A); test: as above; conditions: both partners purified
T3 construct: human interleukin-11, open reading frame in pGEX4T-1, alanine mutant made on the GST-IL-11 plasmid; As m7 with the mutation; also called Arg^112 mutant; source: E. coli BL21, purified from inclusion bodies (solubilized in 6 M guanidine-HCl)
T3 sequence (looked up): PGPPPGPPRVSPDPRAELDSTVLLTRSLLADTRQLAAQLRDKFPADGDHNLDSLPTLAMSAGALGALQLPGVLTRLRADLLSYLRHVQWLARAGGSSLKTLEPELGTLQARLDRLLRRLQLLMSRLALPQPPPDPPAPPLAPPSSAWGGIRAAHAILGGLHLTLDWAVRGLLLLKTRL

GST-IL-11 G116A = target: T4, GST-IL-11 G116A (human, UniProt P20809 22-199, G116A); test: as above; conditions: both partners purified
T4 construct: human interleukin-11, open reading frame in pGEX4T-1, alanine mutant made on the GST-IL-11 plasmid; As m7 with the mutation; also called Gly^116 mutant; source: E. coli BL21, purified from inclusion bodies (solubilized in 6 M guanidine-HCl)
T4 sequence (looked up): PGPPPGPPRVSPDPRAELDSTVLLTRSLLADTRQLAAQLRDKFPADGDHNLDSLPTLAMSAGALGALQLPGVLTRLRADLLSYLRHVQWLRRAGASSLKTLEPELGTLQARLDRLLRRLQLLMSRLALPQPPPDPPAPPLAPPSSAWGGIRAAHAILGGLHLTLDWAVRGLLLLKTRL

GST-IL-11 R113A (human) = GST-IL-11 R113A (human) (UniProt P20809); test: as above
[2] = target: B2; test: phage binding assay; alanine-scanning phage on immobilized IL-11Rα, done as a1; result given as grade of the ratio binding to IL-11Rα / binding to BSA; in duplicate, repeated at least four times; conditions: one partner purified

B1: synthetic cyclic peptide CGRRAGGSC (peptide)
peptide: CGRRAGGSC
modifications: disulfide 1-9
notes: peptide selected from a combinatorial phage library in a cancer patient; RRAGGS corresponds to residues 112-117 of human IL-11; also called IL-11-like peptide; source: synthetic peptide, synthesized and cyclized at AnaSpec
- binding result [1]: binds

Binder: B2
- % binding inhibition relative to wild-type IL-11 (GST-IL-11 G115A): 71%
- % binding inhibition relative to wild-type IL-11 (GST-IL-11 S117A): 86%
- % binding inhibition relative to wild-type IL-11 (GST-IL-11 R112A): 43%
- % binding inhibition relative to wild-type IL-11 (GST-IL-11 G116A): 29%
- % binding inhibition relative to wild-type IL-11 (GST-IL-11 R113A (human)): 86%

B3: CGARAGGSC phage (Arg^3 to Ala mutant of the … phage) (peptide)
peptide: CGARAGGSC
notes: source: phage display, cloned into SfiI-digested fUSE5 vector
- % reduction of binding relative to the … phage [2]: > 70%

B4: CGRRAAGSC phage (Gly^6 to Ala mutant of the … phage) (peptide)
peptide: CGRRAAGSC
notes: as for B3
- % reduction of binding relative to the … phage [2]: > 70%
